Source: article PMC5701251

Target: gp49d, deletion mutant of the phage LKA1 tailspike protein LKA1gp49 without the N-terminal particle-binding domain (residues 1-167) (Pseudomonas phage LKA1)
Test: crystal structure; gp49d crystallised in 8% PEG 6000, 0.8 M NaCl, 0.1 M Na acetate pH 3.5 at 18 °C, 20 mg/ml; molecular replacement with gp61d; homotrimer

Substance: gp49d, deletion mutant of the phage LKA1 tailspike protein LKA1gp49 without the N-terminal particle-binding domain (residues 1-167) (domain or fragment)
- stoichiometry N: 3
